Legend:
[1] = target: Influenza D virus nucleoprotein, strain D/bovine/France/2986/2012 (Influenza D virus, strain D/bovine/France/2986/2012); assay: SEC-MALLS
[2] = target: Influenza D virus nucleoprotein, strain D/bovine/France/2986/2012 (Influenza D virus, strain D/bovine/France/2986/2012); assay: negative-stain electron microscopy
[3] = target: His-tagged D/NP_(TAIL) (505-D/NP-552) (Influenza D virus, strain D/bovine/France/2986/2012); assay: thermal shift assay (Thermofluor)
[4] = target: Biotinylated D/NP_(TAIL) fused to a biotinylation motif (Influenza D virus, strain D/bovine/France/2986/2012); assay: SPR; Biacore 3000; […]; 10 mM Hepes pH 7.4, 150 mM NaCl, 0.05% Tween 20; […]

Chain of human importin-α7 without its IBB domain (amino-acids 58 to 536), O60684 58-536 (domain or fragment; other documents disagree on this pair) (O60684 58-536): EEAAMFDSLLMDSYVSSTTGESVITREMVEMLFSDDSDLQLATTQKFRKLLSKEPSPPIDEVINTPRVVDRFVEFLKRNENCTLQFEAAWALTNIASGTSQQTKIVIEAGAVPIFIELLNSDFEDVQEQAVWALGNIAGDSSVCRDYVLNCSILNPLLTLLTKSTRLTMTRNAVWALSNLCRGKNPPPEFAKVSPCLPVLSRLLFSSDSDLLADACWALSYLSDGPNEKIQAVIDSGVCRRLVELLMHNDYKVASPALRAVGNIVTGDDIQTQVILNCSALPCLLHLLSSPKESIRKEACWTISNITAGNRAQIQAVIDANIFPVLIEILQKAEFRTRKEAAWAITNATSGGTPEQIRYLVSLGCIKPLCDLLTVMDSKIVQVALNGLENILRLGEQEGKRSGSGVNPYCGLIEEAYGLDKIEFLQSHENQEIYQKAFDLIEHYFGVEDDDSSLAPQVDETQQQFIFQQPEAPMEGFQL

Substance: Influenza D virus nucleoprotein, strain D/bovine/France/2986/2012 (from UniProt A0A0E3VZU8 1-552) (natural protein)
- stoichiometry N [1]: 4
- stoichiometry N [2]: 4

Substance: human importin-α7 without its IBB domain (amino-acids 58 to 536), O60684 58-536 (domain or fragment; other documents disagree on this pair)
- stoichiometry N (importin-α7 per D/NP tetramer) [1]: 4
- rise of the melting temperature [3]: 5 °C
- Kd [4]: 100 nM

Source: publication PMC6346101
